Measurements reported in patent US20220177581A1 (Memorial Sloan Kettering, published 2022).
Numbering of substitutions follows the chain as printed. One block for each binder: values may come before it.

Experiments:
[1] = molecular target: T1, CD22 (antigen in the Biacore assay) (human, UniProt P20273 20-687, limits assumed); assay: SPR (Biacore) at 37° C
T1 sequence: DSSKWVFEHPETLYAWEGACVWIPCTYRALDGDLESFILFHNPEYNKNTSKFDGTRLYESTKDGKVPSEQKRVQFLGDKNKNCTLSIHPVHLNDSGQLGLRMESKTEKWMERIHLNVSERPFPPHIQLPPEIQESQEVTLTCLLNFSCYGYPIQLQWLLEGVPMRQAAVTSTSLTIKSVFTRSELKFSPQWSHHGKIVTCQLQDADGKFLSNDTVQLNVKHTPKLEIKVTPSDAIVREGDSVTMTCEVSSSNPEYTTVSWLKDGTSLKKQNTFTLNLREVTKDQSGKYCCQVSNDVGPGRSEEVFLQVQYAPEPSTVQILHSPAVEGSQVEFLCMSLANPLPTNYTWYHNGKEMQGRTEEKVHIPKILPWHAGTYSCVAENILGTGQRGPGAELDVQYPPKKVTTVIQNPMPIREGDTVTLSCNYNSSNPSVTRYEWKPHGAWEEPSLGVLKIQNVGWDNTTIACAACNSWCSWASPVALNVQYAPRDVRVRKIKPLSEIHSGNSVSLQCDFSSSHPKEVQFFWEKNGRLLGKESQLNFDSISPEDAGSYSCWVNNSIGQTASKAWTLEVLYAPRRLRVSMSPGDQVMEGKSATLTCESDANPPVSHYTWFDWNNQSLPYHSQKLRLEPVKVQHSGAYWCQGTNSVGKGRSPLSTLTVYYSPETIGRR

[2] = molecular target: T2, CD22 (UniProtKB-P20273) on CD22(+) cells (human, UniProt P20273 20-847); assay: flow cytometry on CD22(+) NALM6 cells
T2 construct: Endogenous CD22 on the NALM6 and Raji cell lines; also called SIGLEC-2; BL-CAM
T2 sequence: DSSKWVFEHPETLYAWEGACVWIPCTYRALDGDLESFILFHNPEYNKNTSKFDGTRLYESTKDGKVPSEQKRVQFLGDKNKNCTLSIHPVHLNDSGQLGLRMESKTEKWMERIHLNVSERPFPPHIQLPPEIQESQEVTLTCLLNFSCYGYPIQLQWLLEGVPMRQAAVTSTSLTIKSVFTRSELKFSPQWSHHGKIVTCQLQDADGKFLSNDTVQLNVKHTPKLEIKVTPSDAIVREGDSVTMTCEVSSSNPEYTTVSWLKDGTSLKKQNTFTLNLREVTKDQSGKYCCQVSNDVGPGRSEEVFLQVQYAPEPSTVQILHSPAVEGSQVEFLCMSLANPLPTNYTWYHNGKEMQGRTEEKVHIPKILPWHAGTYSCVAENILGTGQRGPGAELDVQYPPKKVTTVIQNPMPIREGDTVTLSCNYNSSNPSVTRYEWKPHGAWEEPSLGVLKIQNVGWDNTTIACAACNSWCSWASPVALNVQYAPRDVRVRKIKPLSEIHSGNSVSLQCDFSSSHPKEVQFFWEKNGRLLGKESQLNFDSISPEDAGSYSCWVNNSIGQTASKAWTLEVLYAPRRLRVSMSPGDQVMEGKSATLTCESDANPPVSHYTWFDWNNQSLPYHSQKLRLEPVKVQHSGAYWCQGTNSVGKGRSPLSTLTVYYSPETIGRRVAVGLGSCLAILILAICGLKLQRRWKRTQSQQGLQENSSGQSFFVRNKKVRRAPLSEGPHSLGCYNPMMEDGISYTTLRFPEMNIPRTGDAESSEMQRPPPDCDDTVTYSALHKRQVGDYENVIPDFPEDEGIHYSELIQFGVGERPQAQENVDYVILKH

B1: chimeric LL2 antibody (antibody, V domains shown)
VH: QVQLQESGAELSKPGASVKMSCKASGYTFTSYWLHWIKQRPGQGLEWIGYINPRNDYTEYNQNFKDKATLTADKSSSTAYMQLSSLTSEDSAVYYCARRDITTFYWGQGTTLTVSS
VL: DIQLTQSPSSLAVSAGENVTMSCKSSQSVLYSANHKNYLAWYQQKPGQSPKLLIYWASTRESGVPDRFTGSGSGTDFTLTISRVQVEDLAIYYCHQYLSSWTFGGGTKLEIK
notes: Murine LL2 variable domains with human constant domains (IgG1)
Kd [1]: 1.37 pM
koff [1]: 2.31e-07 s⁻¹
kon [1]: 169000 M⁻¹ s⁻¹
MFI (FACS NALM6) [2]: 33.4

B2: humanized LL2 L1 + H9 (antibody, V domains shown)
VH: QVQLVQSGAEVKKPGASVKVSCKASGYTFTSYWLHWVRQAPGQRLEWIGYINPRNDYTEYNQNFKDRVTITADTSASTAYMELSSLRSEDTAVYYCARRDITTFYWGQGTTLTVSS
VL: B1 VL with Q3V, S9D, N18R, S22N, S49P, T69S, R83S, V86A, L89V
notes: Human IgG1 frameworks; also called H9L1
Kd [1]: 24.8 pM
koff [1]: 3.3e-06 s⁻¹
kon [1]: 133000 M⁻¹ s⁻¹
MFI (FACS NALM6) [2]: 34.5

B4: humanized LL2 L1 + H12 (antibody, V domains shown)
VH: B2 VH with V5Q, V20M, I48M
VL: B1 VL with Q3V, S9D, N18R, S22N, S49P, T69S, R83S, V86A, L89V
notes: Human IgG1 frameworks; also called H12L1; VL1-VH12
Kd [1]: 2.05 pM
koff [1]: 5.88e-07 s⁻¹
kon [1]: 287000 M⁻¹ s⁻¹
MFI (FACS NALM6) [2]: 39.2

B5: humanized LL2 L1 + H8 (antibody, V domains shown)
VH: B2 VH with Q6E, V37I, I48M, A72R
VL: B1 VL with Q3V, S9D, N18R, S22N, S49P, T69S, R83S, V86A, L89V
notes: Human IgG1 frameworks
MFI (FACS NALM6) [2]: 23.3

B8: humanized LL2 L1 + H7 (antibody, V domains shown)
VH: B2 VH with Q6E, I48M, V68A, A72R
VL: B1 VL with Q3V, S9D, N18R, S22N, S49P, T69S, R83S, V86A, L89V
notes: Human IgG1 frameworks
MFI (FACS NALM6) [2]: 21.8

B9: humanized LL2 L1 + H11 (antibody, V domains shown)
VH: B2 VH with V20M, I48M, V68A
VL: B1 VL with Q3V, S9D, N18R, S22N, S49P, T69S, R83S, V86A, L89V
notes: Human IgG1 frameworks; also called H11L1; VL1-VH11
Kd [1]: 0.0104 pM
koff [1]: 1.71e-09 s⁻¹
kon [1]: 164000 M⁻¹ s⁻¹
MFI (FACS NALM6) [2]: 33.6

B15: humanized LL2 L1 + H4 (antibody, V domains shown)
VH: B2 VH with V5Q, V20M, V37I, I48M, N63K, K65Q, D66G, V68A, T74K
VL: B1 VL with Q3V, S9D, N18R, S22N, S49P, T69S, R83S, V86A, L89V
notes: Human IgG1 frameworks; also called H4L1
Kd [1]: 0.00191 pM
kon [1]: 154000 M⁻¹ s⁻¹
MFI (FACS NALM6) [2]: 33.6

B16: humanized LL2 L1 + H6 (antibody, V domains shown)
VH: B2 VH with V5Q, V37I, I48M, A72R
VL: B1 VL with Q3V, S9D, N18R, S22N, S49P, T69S, R83S, V86A, L89V
notes: Human IgG1 frameworks; also called H6L1
Kd [1]: 0.17 pM
koff [1]: 2.91e-08 s⁻¹
kon [1]: 171000 M⁻¹ s⁻¹
MFI (FACS NALM6) [2]: 33.5

B17: humanized LL2 L1 + H1 (antibody, V domains shown)
VH: B2 VH with Q6E, V20M, V37I, E59K, N61S, N63K, K65Q, D66G, V68A, T74K
VL: B1 VL with Q3V, S9D, N18R, S22N, S49P, T69S, R83S, V86A, L89V
notes: Human IgG1 frameworks
MFI (FACS NALM6) [2]: 26.4

B18: humanized LL2 L1 + H10 (antibody, V domains shown)
VH: B2 VH with I48M, I70L, T74K
VL: B1 VL with Q3V, S9D, N18R, S22N, S49P, T69S, R83S, V86A, L89V
notes: Human IgG1 frameworks; also called H10L1
Kd [1]: 0.0435 pM
koff [1]: 7.67e-09 s⁻¹
kon [1]: 176000 M⁻¹ s⁻¹
MFI (FACS NALM6) [2]: 32.7

B21: humanized LL2 L2 + H1 (antibody, V domains shown)
VH: B2 VH with Q6E, V20M, V37I, E59K, N61S, N63K, K65Q, D66G, V68A, T74K
VL: B1 VL with Q3V, S9D, A15L, N18R, S22N, T69S, R83S, V86A, L89V
notes: Human IgG1 frameworks; also called H1L2
Kd [1]: 403 pM
koff [1]: 0.00219 s⁻¹
kon [1]: 5.43e+06 M⁻¹ s⁻¹
MFI (FACS NALM6) [2]: 40

B22: humanized LL2 L1 + H3 (antibody, V domains shown)
VH: B2 VH with V5Q, V37I, N61S, N63K, K65Q, D66G, V68A, I70L
VL: B1 VL with Q3V, S9D, N18R, S22N, S49P, T69S, R83S, V86A, L89V
notes: Human IgG1 frameworks; also called H3L1
Kd [1]: 34.4 pM
koff [1]: 3.09e-06 s⁻¹
kon [1]: 89800 M⁻¹ s⁻¹
MFI (FACS NALM6) [2]: 31.9

B24: humanized LL2 L1 + H2 (antibody, V domains shown)
VH: QVQLQESGAEVKKPGASVKMSCKASGYTFTSYWLHWIRQAPGQRLEWIGYINPRNDYTKYSQKFQGRVTLTRDKSASTAYMELSSLRSEDTAVYYCARRDITTFYWGQGTTLTVSS
VL: B1 VL with Q3V, S9D, N18R, S22N, S49P, T69S, R83S, V86A, L89V
notes: Human IgG1 frameworks; also called H2L1
Kd [1]: 1720 pM
koff [1]: 0.00478 s⁻¹
kon [1]: 2.77e+06 M⁻¹ s⁻¹
MFI (FACS NALM6) [2]: 32.8

B25: humanized LL2 L1 + H5 (antibody, V domains shown)
VH: B24 VH with M20V, I37V, K59E, V68A, R72A, K74T
VL: B1 VL with Q3V, S9D, N18R, S22N, S49P, T69S, R83S, V86A, L89V
notes: Human IgG1 frameworks; also called H5L1
Kd [1]: 41 pM
koff [1]: 4.19e-06 s⁻¹
kon [1]: 102000 M⁻¹ s⁻¹
MFI (FACS NALM6) [2]: 35.2

More lines, now with the values ahead:

MFI (FACS NALM6) [2]: 28.1
B3: humanized LL2 L2 + H2 (antibody, V domains shown)
VH: B24 VH
VL: B1 VL with Q3V, S9D, A15L, N18R, S22N, T69S, R83S, V86A, L89V
notes: Human IgG1 frameworks

MFI (FACS NALM6) [2]: 36.3
B6: humanized LL2 L2 + H11 (antibody, V domains shown)
VH: B2 VH with V20M, I48M, V68A
VL: B1 VL with Q3V, S9D, A15L, N18R, S22N, T69S, R83S, V86A, L89V
notes: Human IgG1 frameworks

MFI (FACS NALM6) [2]: 40.4
B7: humanized LL2 L2 + H5 (antibody, V domains shown)
VH: B24 VH with M20V, I37V, K59E, V68A, R72A, K74T
VL: B1 VL with Q3V, S9D, A15L, N18R, S22N, T69S, R83S, V86A, L89V
notes: Human IgG1 frameworks

MFI (FACS NALM6) [2]: 36.8
B10: humanized LL2 L2 + H3 (antibody, V domains shown)
VH: B24 VH with E6Q, M20V, K59E, V68A, R72A, K74T
VL: B1 VL with Q3V, S9D, A15L, N18R, S22N, T69S, R83S, V86A, L89V
notes: Human IgG1 frameworks

MFI (FACS NALM6) [2]: 35.9
B11: humanized LL2 L2 + H4 (antibody, V domains shown)
VH: B24 VH with E6Q, I48M, K59E, S61N, V68A, L70I, R72A
VL: B1 VL with Q3V, S9D, A15L, N18R, S22N, T69S, R83S, V86A, L89V
notes: Human IgG1 frameworks

MFI (FACS NALM6) [2]: 26.7
B12: humanized LL2 L2 + H8 (antibody, V domains shown)
VH: B2 VH with Q6E, V37I, I48M, A72R
VL: B1 VL with Q3V, S9D, A15L, N18R, S22N, T69S, R83S, V86A, L89V
notes: Human IgG1 frameworks

MFI (FACS NALM6) [2]: 27.3
B13: humanized LL2 L2 + H7 (antibody, V domains shown)
VH: B2 VH with Q6E, I48M, V68A, A72R
VL: B1 VL with Q3V, S9D, A15L, N18R, S22N, T69S, R83S, V86A, L89V
notes: Human IgG1 frameworks

MFI (FACS NALM6) [2]: 36.1
B14: humanized LL2 L2 + H6 (antibody, V domains shown)
VH: B2 VH with V5Q, V37I, I48M, A72R
VL: B1 VL with Q3V, S9D, A15L, N18R, S22N, T69S, R83S, V86A, L89V
notes: Human IgG1 frameworks

MFI (FACS NALM6) [2]: 34.3
B19: humanized LL2 L2 + H9 (antibody, V domains shown)
VH: B2 VH
VL: B1 VL with Q3V, S9D, A15L, N18R, S22N, T69S, R83S, V86A, L89V
notes: Human IgG1 frameworks

MFI (FACS NALM6) [2]: 31.7
B20: humanized LL2 L2 + H12 (antibody, V domains shown)
VH: B2 VH with V5Q, V20M, I48M
VL: B1 VL with Q3V, S9D, A15L, N18R, S22N, T69S, R83S, V86A, L89V
notes: Human IgG1 frameworks

MFI (FACS NALM6) [2]: 37
B23: humanized LL2 L2 + H10 (antibody, V domains shown)
VH: B2 VH with I48M, I70L, T74K
VL: B1 VL with Q3V, S9D, A15L, N18R, S22N, T69S, R83S, V86A, L89V
notes: Human IgG1 frameworks
